Source: patent US20130035289A1, “PHARMACEUTICAL COMPOSITION FOR TREATMENT OF THROMBOSIS-RELATED DISEASES COMPRISING A FRAGMENT OF PROLACTIN (PRL)-GROWTH HORMONE (GH)-PLACENTAL LACTOGEN (PL)-FAMILY PROTEIN” (UNIVERSITE DE LIEGE, priority 2010, published 2013)

B1: 14K hGH: 14K N-terminal fragment of human growth hormone, recombinant, produced and purified from E. coli (protein)
chain: MFPTIPLSRLFDNAMLRAHRLHQLAFDTYQEFEEAYIPKEQKYSFLQNPQTSLSFSESIPTPSNREETQQKSNLELLRISLLLIQSWLEPVQFLRSVFANSLVYGASDSNVYDLLKDLEEGIQTLMGRLEDGSP
B2: 16K hPRL: 16K N-terminal human prolactin fragment, recombinant, produced and purified from E. coli (protein)
chain: LPICPGGAARCQVTLRDLFDRAVVLSHYIHNLSSEMFSEFDKRYTHGRGFITKAINSCHTSSLATPEDKEQAQQMNQKDFLSLIVSILRSWNEPLYHLVTEVRGMQEAPEAILSKAVEIEEQTKRLLEGMELIVSQVHP

Columns and labels:
PAI-1 [1] = target: T1, PAI-1 (Homo sapiens, UniProt P05121); assay: Gal4 yeast two-hybrid system; format: binding
T1 construct: gift of Pr; P. Declerck
T1 sequence (P05121 24-402): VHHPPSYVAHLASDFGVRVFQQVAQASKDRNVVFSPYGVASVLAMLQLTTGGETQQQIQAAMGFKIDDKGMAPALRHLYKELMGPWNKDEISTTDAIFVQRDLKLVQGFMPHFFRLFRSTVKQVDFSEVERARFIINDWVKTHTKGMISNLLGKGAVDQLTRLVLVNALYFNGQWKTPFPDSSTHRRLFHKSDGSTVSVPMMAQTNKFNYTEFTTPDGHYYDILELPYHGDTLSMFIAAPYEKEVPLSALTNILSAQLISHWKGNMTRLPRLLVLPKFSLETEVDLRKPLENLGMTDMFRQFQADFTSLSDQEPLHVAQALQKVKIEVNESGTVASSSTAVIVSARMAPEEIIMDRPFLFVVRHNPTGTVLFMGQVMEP

endothelial cells = assay: Endothelial cell proliferation (BrdU incorporation); format: cell-based, bovine; conditions: for anti-proliferative function: down-regulation of PAI-1 expression by si-RNA; for anti-proliferation effect: recombinant wild type PAI-1 added to culture medium
Protocol: The cells were plated in 96-well culture plates at a density of 2,500 cells per well in 10% FCS/DMEM and allowed to adhere for 24 h. Then complete medium was replaced with SFM for 24 h. […] Proliferation was analysed 24 h later by measuring BrdU incorporation by means of the Cell Proliferation ELISA, BrdU (Colorimetric) (Roche, Clinical Laboratories, Indianapolis, Ind.). […] ID NO: 35); PAI-1 […] ID NO: 36).

uPA [2] = target: T2, uPA (Homo sapiens, UniProt P00749+P05121); assay: Double immunofluorescence staining on HUVEC, co-localization with uPA; format: cell-based; conditions: non permeabilized, 160 ng/ml
T2 construct: endogenous in cells; host or cells: HUVEC
Protocol: HUVEC were grown to 70% on gelatin-coated 35 mm dishes. After incubation at 37° C. with 14K hGH (160 ng/ml) or 16K hPRL (160 ng/ml), cells were washed with PBS at room temperature, non permeabilized and incubated for 1 hr at room temperature with mouse anti uPA (American Diagnostica INC. Greenwich, Conn.) 1/100, Rabbit anti Prolactin (Dako) 1/100 or rabbit anti human GH (home made) 1/100. Endothelial cells were washed in PBS and incubated with FITC horse anti mouse antibody (Vector Laboratory) and Texas Red Goat anti rabbit (Jackson Laboratory).
HUVECs were grown to 70% confluence on gelatin-coated 35-mm dishes. After incubation for 3 h with 14K GH (160 ng/ml) or 16K PRL (160 ng/ml), the cells were washed with PBS at room temperature and incubated for 1 h at room temperature under non-permeabilization conditions with mouse anti uPA (American Diagnostica INC) diluted 1/100, rabbit anti prolactin (Dako) diluted 1/100, or rabbit anti human GH (home made) diluted 1/100. Endothelial cells were washed in PBS and incubated with FITC horse anti mouse (Vector Laboratory) and Texas red goat anti rabbit antibodies (Jackson Laboratory). […] After 3 washes in PBS for 10 min, the slides were covered with coverslips in mounting medium (Victor Laboratories Inc.) and analyzed by fluorescence microscopy.

PAI-1 [3] = target: T1, PAI-1; assay: Inhibition of PAI-1 anti-proteolytic activity, uPA/plasminogen chromogenic (colorimetric) assay; format: biochemical; conditions: uPA, bovine plasminogen, PAI-1, absorbance 405 nm
Protocol: The main physiological function of PAI-1 is to inhibit uPA and tPA proteolytic activity. […] A chromogenic substrate for plasmin (Spectrozyme PL: 0.5 mM. American Diagnostica INC) in PBS was added to the mixture in 96-well microtitration plates and kept at room temperature. The release of free p-nitro-aniline from the chromogenic substrate was measured spectrophotometrically. The activity of plasmin was determined as the absorbance at 405 nm.

PAI-1 [4] = target: T1, PAI-1; assay: Immunofluorescence staining on HUVEC, co-localization with His-tag PAI-1; format: cell-based; conditions: HUVECs, PAI-1 added to the medium with 16K PRL
Protocol: (§1) HUVECs were grown to 70% confluence on gelatin-coated 35-mm dishes. After incubation for 3 h with 14K GH (160 ng/ml) or 16K PRL (160 ng/ml), the cells were washed with PBS at room temperature and incubated for 1 h at room temperature under non-permeabilization conditions with mouse anti uPA (American Diagnostica INC) diluted 1/100, rabbit anti prolactin (Dako) diluted 1/100, or rabbit anti human GH (home made) diluted 1/100. Endothelial cells were washed in PBS and incubated with FITC horse anti mouse (Vector Laboratory) and Texas red goat anti rabbit antibodies (Jackson Laboratory). For PAI-1 staining, the cells were incubated simultaneously with Histag PAI-1 at 800 uM and 16K PRL or 14K GH. […] Cryostat tumor sections (5 μm thick) were fixed in acetone at −20° C. and in 100% methanol at 4° C. and then incubated with the primary antibodies, rat monoclonal anti PECAM-1, and rabbit polyclonal anti-prolactin (DAKO) for 1 hour at room temperature. The slides were washed and incubated with a Cy3 goat anti-rat and an FITC goat anti-rabbit antibody. After 3 washes in PBS for 10 min, the slides were covered with coverslips in mounting medium (Victor Laboratories Inc.) and analyzed by fluorescence microscopy.

NF-κB = NF-κB activity in ABAE cells; format: cell-based, bovine; conditions: PAI-1 knockdown with si-RNA, 16K PRL 50 nM 1 h
uPA [5] = target: T2, uPA; assay: In situ proximity ligation assay (PLA) on HUVECs; format: cell-based
Protocol: HUVECs were grown on gelatin-coated glass coverslips. After incubation for 2 h with 14K GH (50 nM) or 16K PRL (50 nM), the cells were washed with PBS at room temperature and fixed with 4% paraformaldehyde for 15 min, blocked, permeabilized and incubated overnight with mouse anti uPA (American Diagnostica Inc. Greenwich, Conn.) diluted 1/100 and rabbit anti prolactin (Dako) diluted 1/100, or rabbit anti human GH (home made) diluted 1/100. PLA was performed according to the manufacturer's instructions using the Duolink Detection Kit 563 (Olink Bioscience) with anti-mouse MINUS and anti-rabbit PLUS PLA probes. DAPI nucleus stain was added to the mounting media and the slides were analyzed by fluorescence microscopy.

B16F10 tumor = assay: B16F10 subcutaneous tumor model in wild type and PAI-1 deficient mice; format: in vivo, mouse
Protocol: Homozygous PAI-1 deficient mice (PAI-1^−/−) and the corresponding WT mice (PAI^+/+) from either sex with a mixed genetic background 87% C57BL/6 and 13% 129 strain were used throughout this study. The animal experiment protocol used was approved by the Institutional Ethics Committee of the University of Liege.
Subconfluent B16-F10 cells were trypsinized, washed, and resuspended in PBS. Cell suspension (10^5 cells in 50 μl PBS) was injected subcutaneously into the right flank of mice experiments were performed on seven mice in each group. 18 to 20 days after tumor cells injection, the mice were killed and their tumors harvested. Tumor growth was assessed by measuring the length and width of each tumor every 1 to 2 days and calculating tumor volume by means of the formula: length×width^2×0.5.
16K-Ad is a defective recombinant E1-E3-deleted adenovirus vector encoding a secreted polypeptide consisting of the first 139 amino acids of PRL. This adenovirus vector was constructed as previously described with the help of the Adeno-X expression system (BD Biosciences, Erembodegem, Belgium). Null-Ad is a control adenovirus carrying an empty expression cassette. A recombinant adenovirus vector bearing WT human PAI-1 (AdCMVPAI-1) and control adenovirus (AddRR5) were generated as previously described.
The 16K hPRL adenovirus and their corresponding control were injected into mouse tail vein 2 days before the subcutaneous injection of tumor cells. A second injection was done 8 days after the first one. The wt PAI-1 adenovirus and their control were injected one day after the 16K hPRL adenovirus injections. 10^9 pfu of adenoviruses were used for each tail vein injection.
as §1

Molecule	interaction with PAI-1 in yeast two-hybrid system (PAI-1 [1])	anti-proliferative function (endothelial cells)	anti-proliferation effect (endothelial cells)	co-localization with uPA (uPA [2])	inhibition of PAI-1 function to inhibit uPA and tPA proteolytic activity (PAI-1 [3])	co-localization with PAI-1 (PAI-1 [4])	16K PRL action on ECs (NF-κB activity) (NF-κB)	distance between uPA and 16K PRL (uPA [5])	16K PRL localization (immunostaining) (B16F10 tumor; PAI-1-deficient mice)	plasma level of 16K PRL at the end of the experiment (B16F10 tumor; PAI-1 deficient mice)	anti-tumoral effect (B16F10 tumor; PAI-1 deficient mice with systemic expression of human PAI-1 (adenoviral vector))	tumor growth (B16F10 tumor; PAI-1 deficient mice, 16K PRL expressed via 16K-Ad)	tumor blood vessels (B16F10 tumor; PAI-1−/− mice)	plasma level of 16K PRL at the end of the experiment (B16F10 tumor; mice where human PAI-1 expression was restored)	16K PRL localization (immunostaining) (B16F10 tumor; wild-type mice and PAI-1−/− mice injected with PAI-1-Ad)	tumor blood vessels (B16F10 tumor; wild-type mice, versus untreated controls)
B1	found to interact	reduced significantly	reduced significantly	co-localised at the cell surface	significantly inhibited											
B2	interacts	reduced significantly	reduced significantly	co-localised at the cell surface	significantly inhibited	co-localization of 16K PRL and PAI-1 was observed	reduced	less than 40 nm	only in the bloodstream	remained detectable	restored	did not show a tumor growth reduction	appeared normal	considerably dropped off	observed in tumor tissues	smaller, collapsed blood vessels
